The values that follow come from publication PMC6321010, “Interaction of the GTPase Elongation Factor Like-1 with the Shwachman-Diamond Syndrome Protein and Its Missense Mutations” (International Journal of Molecular Sciences, 2018).

Common to all, as to assay: fluorescence polarisation; fluorescence anisotropy; 2 µL additions of 40-90 µM human EFL1 titrated into 300 µL of 0.1 µM Lumio Green-labelled human SBDS-FlAsH construct; 25 °C; 50 mM Tris-HCl pH 8, 300 mM NaCl, 5 mM β-mercaptoethanol; fitted to a single-site or a two different binding sites model
What all share (conditions): both partners purified

The target of experiment [1] is T1, human SBDS domains 1-2 (residues 1-174) with C-terminal FlAsH tag, labelled with Lumio Green (human, UniProt Q9Y3A5 1-174, Lumio Green dye (4',5'-bis(1,3,2-dithioarsolan-2-yl) fluorescein) on the C-terminal FlAsH tag).
T1 construct: human SBDS, domains 1-2, residues 1-174; also called construct consisting of domains 1-2 of SBDS; source: E. coli C41 (pRSET plasmid), purified by conventional chromatographic techniques; not shown: FlAsH tag (Cys-Cys-Pro-Gly-Cys-Cys), C-terminal, kept
T1 sequence (looked up): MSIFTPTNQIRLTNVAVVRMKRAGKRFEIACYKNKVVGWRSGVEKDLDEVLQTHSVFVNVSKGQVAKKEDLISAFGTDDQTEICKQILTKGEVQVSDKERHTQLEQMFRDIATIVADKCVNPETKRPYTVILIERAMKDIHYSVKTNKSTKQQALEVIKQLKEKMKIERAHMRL

Experiment [2] addresses T2, human SBDS K67E with C-terminal FlAsH tag, labelled with Lumio Green (human, UniProt Q9Y3A5 1-250, K67E, Lumio Green dye (4',5'-bis(1,3,2-dithioarsolan-2-yl) fluorescein) on the C-terminal FlAsH tag).
T2 construct: human SBDS, SDS disease surface missense variant K67E (domain 1), in the three-domain protein; Missense variant found in patients; source: E. coli C41 (pRSET plasmid), purified by conventional chromatographic techniques; not shown: FlAsH tag (Cys-Cys-Pro-Gly-Cys-Cys), C-terminal, kept
T2 sequence (looked up): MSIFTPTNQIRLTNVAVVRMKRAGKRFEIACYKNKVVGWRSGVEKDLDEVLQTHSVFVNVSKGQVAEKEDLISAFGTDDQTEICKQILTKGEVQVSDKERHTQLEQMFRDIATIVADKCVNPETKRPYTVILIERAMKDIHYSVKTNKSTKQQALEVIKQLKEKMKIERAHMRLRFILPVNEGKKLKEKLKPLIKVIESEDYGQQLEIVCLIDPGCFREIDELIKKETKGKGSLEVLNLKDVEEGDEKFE

Experiment [3] has as its target T3, human SBDS R126T with C-terminal FlAsH tag, labelled with Lumio Green (human, UniProt Q9Y3A5 1-250, R126T, Lumio Green dye (4',5'-bis(1,3,2-dithioarsolan-2-yl) fluorescein) on the C-terminal FlAsH tag).
T3 construct: human SBDS, SDS disease surface missense variant R126T (domain 2), in the three-domain protein; Missense variant found in patients; source: E. coli C41 (pRSET plasmid), purified by conventional chromatographic techniques; not shown: FlAsH tag (Cys-Cys-Pro-Gly-Cys-Cys), C-terminal, kept
T3 sequence (looked up): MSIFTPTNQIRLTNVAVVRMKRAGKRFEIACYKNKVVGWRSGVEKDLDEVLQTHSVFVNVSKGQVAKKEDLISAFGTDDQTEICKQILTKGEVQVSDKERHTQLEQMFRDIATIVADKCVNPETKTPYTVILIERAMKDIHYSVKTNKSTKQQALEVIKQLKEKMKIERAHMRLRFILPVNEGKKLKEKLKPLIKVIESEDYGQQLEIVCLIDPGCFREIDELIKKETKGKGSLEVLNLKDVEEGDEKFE

B1: human Elongation Factor Like-1 (EFL1) (enzyme)
chain: MVLNSLDKMIQLQKNTANIRNICVLAHVDHGKTTLADCLISSNGIISSRLAGKLRYMDSREDEQIRGITMKSSAISLHYATGNEEYLINLIDSPGHVDFSSEVSTAVRICDGCIIVVDAVEGVCPQTQAVLRQAWLENIRPVLVINKIDRLIVELKFTPQEAYSHLKNILEQINALTGTLFTSKVLEERAERETESQVNPNSEQGEQVYDWSTGLEDTDDSHLYFSPEQGNVVFTSAIDGWGFGIEHFARIYSQKIGIKKEVLMKTLWGDYYINMKAKKIMKGDQAKGKKPLFVQLILENIWSLYDAVLKKDKDKIDKIVTSLGLKIGAREARHSDPKVQINAICSQWLPISHAVLAMVCQKLPSPLDITAERVERLMCTGSQTFDSFPPETQALKAAFMKCGSEDTAPVIIFVSKMFAVDAKALPQNKPRPLTQEEIAQRRERARQRHAEKLAAAQGQAPLEPTQDGSAIETCPKGEEPRGDEQQVESMTPKPVLQEENNQESFIAFARVFSGVARRGKKIFVLGPKYSPLEFLRRVPLGFSAPPDGLPQVPHMAYCALENLYLLMGRELEYLEEVPPGNVLGIGGLQDFVLKSATLCSLPSCPPFIPLNFEATPIVRVAVEPKHPSEMPQLVKGMKLLNQADPCVQILIQETGEHVLVTAGEVHLQRCLDDLKERFAKIHISVSEPIIPFRETITKPPKVDMVNEEIGKQQKVAVIHQMKEDQSKIPEGIQVDSDGLITITTPNKLATLSVRAMPLPEEVTQILEENSDLIRSMEQLTSSLNEGENTHMIHQKTQEKIWEFKGKLEQHLTGRRWRNIVDQIWSFGPRKCGPNILVNKSEDFQNSVWTGPADKASKEASRYRDLGNSIVSGFQLATLSGPMCEEPLMGVCFVLEKWDLSKFEEQGASDLAKEGQEENETCSGGNENQELQDGCSEAFEKRTSQKGESPLTDCYGPFSGQLIATMKEACRYALQVKPQRLMAAMYTCDIMATGDVLGRVYAVLSKREGRVLQEEMKEGTDMFIIKAVLPVAESFGFADEIRKRTSGLASPQLVFSHWEIIPSDPFWVPTTEEEYLHFGEKADSENQARKYMNAVRKRKGLYVEEKIVEHAEKQRTLSKNK
notes: human EFL1, GTPase, said to comprise 1120 residues; the expressed protein is fused to a TEV recognition site and a hexahistidine tag at the C-terminus; also called human EFL1; GTPase Elongation Factor Like-1; source: S. cerevisiae BCY123 (pRS426 backbone, GAL1/10 promoter), purified
As to B1, the “Kd1 (first binding site, two different binding sites model)” value in experiment [1] was found to be 11.3 ± 1.8 µM; in experiment [2], 7.2 ± 2 µM; in experiment [3], 9.3 ± 1.7 µM. For the same molecule, the “Kd2 (second binding site, two different binding sites model)” value in experiment [1] was 3.9 ± 0.2 µM; in experiment [2], 3 ± 1 µM; in experiment [3], 2.5 ± 0.2 µM.
